In patent US20230002481A1 (Chugai, published 2023):

What was measured:
[1] = biological target: T1, recombinant human C1r2s2 tetramer (human, UniProt P09871 16-688; P00736 18-705); experiment: SPR (Biacore), antibody captured on ProA/G, antigen as analyte, 37 C, pH5.8, 1.2 mM CaCl2; pH 5.8
T1 construct: Heterotetramer of two C1r and two C1s chains, co-expressed in FreeStyle293-F cells; also called human C1r2s2s
T1 chain 1: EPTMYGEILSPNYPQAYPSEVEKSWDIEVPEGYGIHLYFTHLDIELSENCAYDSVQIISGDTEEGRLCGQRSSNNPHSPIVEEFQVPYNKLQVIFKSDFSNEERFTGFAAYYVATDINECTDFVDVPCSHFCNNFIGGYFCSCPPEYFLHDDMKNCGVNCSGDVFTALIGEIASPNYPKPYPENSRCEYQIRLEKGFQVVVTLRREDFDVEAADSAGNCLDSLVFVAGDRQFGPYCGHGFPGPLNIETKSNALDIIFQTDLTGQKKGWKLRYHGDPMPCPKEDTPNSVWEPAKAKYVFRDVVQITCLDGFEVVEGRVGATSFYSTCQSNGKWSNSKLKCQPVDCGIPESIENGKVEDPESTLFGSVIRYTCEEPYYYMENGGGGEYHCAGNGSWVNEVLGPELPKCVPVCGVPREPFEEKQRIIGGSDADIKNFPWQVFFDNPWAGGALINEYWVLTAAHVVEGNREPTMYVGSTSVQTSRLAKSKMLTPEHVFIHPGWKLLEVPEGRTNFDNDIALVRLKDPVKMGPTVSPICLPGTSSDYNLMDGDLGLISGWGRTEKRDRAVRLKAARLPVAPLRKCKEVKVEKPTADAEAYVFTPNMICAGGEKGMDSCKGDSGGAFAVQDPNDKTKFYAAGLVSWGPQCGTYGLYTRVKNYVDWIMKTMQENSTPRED
T1 chain 2: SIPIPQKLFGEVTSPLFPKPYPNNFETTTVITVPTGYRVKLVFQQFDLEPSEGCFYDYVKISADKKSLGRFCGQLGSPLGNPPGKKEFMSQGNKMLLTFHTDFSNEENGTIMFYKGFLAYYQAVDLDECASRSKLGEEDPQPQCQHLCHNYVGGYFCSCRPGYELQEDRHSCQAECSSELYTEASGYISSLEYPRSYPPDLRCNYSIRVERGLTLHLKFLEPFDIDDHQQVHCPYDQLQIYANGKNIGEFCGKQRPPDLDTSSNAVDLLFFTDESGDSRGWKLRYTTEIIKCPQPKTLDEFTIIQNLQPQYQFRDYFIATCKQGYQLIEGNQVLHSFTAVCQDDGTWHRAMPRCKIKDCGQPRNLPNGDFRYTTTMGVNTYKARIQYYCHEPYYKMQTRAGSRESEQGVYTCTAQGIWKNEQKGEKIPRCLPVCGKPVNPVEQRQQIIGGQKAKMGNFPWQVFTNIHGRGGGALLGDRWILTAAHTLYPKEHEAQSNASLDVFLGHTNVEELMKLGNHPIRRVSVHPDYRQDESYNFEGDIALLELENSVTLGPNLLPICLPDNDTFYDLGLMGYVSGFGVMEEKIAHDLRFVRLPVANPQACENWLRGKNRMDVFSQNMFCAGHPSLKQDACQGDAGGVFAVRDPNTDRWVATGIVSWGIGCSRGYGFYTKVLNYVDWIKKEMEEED
Experimental: (§1) The kinetic parameters of anti-C1s antibodies against recombinant human C1s (as described in PCT/JP2018/042054), human C1r2s2, and cyno C1r2s2 His/Flag (also referred as cyno C1r2s2 in the Table and Figures) were assessed at pH7.4 and pH5.8, at 37 degrees C. using BIACORE (registered trademark) T200 instrument (GE Healthcare) or BIACORE 4000 (GE Healthcare). ProAG (Pierce) was immobilized onto a CM4 sensorchip using amine coupling kit (GE Healthcare) according to the recommended settings by GE Healthcare. Antibodies and analytes were diluted into the respective running buffers, ACES pH7.4 and pH5.8 (20 mM ACES, 150 mM NaCl, 1.2 mM CaCl₂, 1 mg/ml BSA, 1 mg/ml CMD, 0.05% Tween 20, 0.005 w/v % NaN₃). Each antibody was captured onto the sensor surface by ProA/G. Antibody capture levels were typically 100-200 resonance units (RU). Then, recombinant C1s was injected at concentrations of 25 and 50 nM followed by dissociation at pH7.4 and pH5.8. The surface was regenerated using 10 mM Glycine-HCl, pH1.5. Kinetic parameters at neutral pH conditions and acidic conditions were determined by fitting the sensorgrams with 1:1 binding model using BIACORE (registered trademark) T200 Evaluation software, version 2.0 (GE Healthcare) or BIACORE 4000 Evaluation software. The dissociation rate at pH5.8 (after dissociation at pH7.4, indicated as pH5.8* in TABLE 2) was determined by processing and fitting data using Scrubber 2.0 (BioLogic Software) curve fitting software. The association rate (ka), dissociation rate (kd), binding affinity (KD) at pH7.4 and pH5.8 condition, and dissociation rate (kd) at pH5.8* condition of the antibodies are listed in TABLE 2. Some kinetic parameters of COS0098pHv1 in acidic condition were not correctly calculated because of its weak binding response.
(§2) Also, to observe the cross-reactivity of anti-C1s antibodies against human C1r2s2 and cyno C1r2s2 (cyno C1r2s2 His/Flag), BIACORE (registered trademark) kinetics analysis was performed.

[2] = biological target: T1, recombinant human C1r2s2 tetramer; experiment: SPR (Biacore), antibody captured on ProA/G, antigen as analyte, 37 C, pH7.4, 1.2 mM CaCl2; pH 7.4
Experimental: as §1, §2

B1: COS0098bb (antibody, V domains shown)
VH: QSVEESGGRLVTPGTPLTLTCTVSGFSLTKYTVSWVRQAPGKGLEWIGIINTGGSAYYATWAKGRFTFSKTSTTVDLQITSPTTEDTATYFCARGNGDTDYTNLWGPGTLVTVSS
VL: QVLTQTPSSVSEPVGGTVTINCQASENIYSALAWYQQKPGQPPKLLIYGASNLESGVPSRFKGSGSGTQFTLTISDLECADAATYYCQQYYFTSSTFGGGTKVEIK
notes: Anti-C1s rabbit antibody, parent of COS0098pHv1; the antibody was captured by ProA/G; also called anti-C1s antibody COS0098bb
Kd [1]: 1.2 nM | koff [1]: 0.00103 s⁻¹ | kon [1]: 858000 M⁻¹ s⁻¹ | Kd [2]: 0.213 nM | koff [2]: 0.0002 s⁻¹ | kon [2]: 936000 M⁻¹ s⁻¹
